In paper PMC6736995, “Insights Into Enhanced Complement Activation by Structures of Properdin and Its Complex With the C-Terminal Domain of C3b” (Frontiers in Immunology, 2019):
Each block holds one molecule with its values, some of them ahead of it.

Columns and labels:
[1] = molecular target: C3b (Homo sapiens) (UniProt P01024); conditions: cited from earlier work
[2] = molecular target: T1, P^N1′/456, biotinylated monomerized properdin (complex of P^N1′ with P^456) (human, UniProt P27918 28-134; P27918 256-469, biotinylated with EZ-Link Maleimide-PEG2-Biotin as described for C3b (site not stated)); assay: SPR; biotinylated P^N1′/456 on a SensEye P-Strep chip; C3/C3b-CTC injected 2.4 × 10^-2 to 200 μM (200 μM point left out as an outlier); 20 mM HEPES pH 7.4, 0.005% Tween-20, 150 mM NaCl; 25°C; equilibrium end-point fit; conditions: both partners purified
T1 construct: N-terminal Gly-Ser cloning scar from the BamHI site; properdin, human, P^N1′, res; 28-134; includes an additional Cys-Pro (res. 133-134) at the C-terminus of TSR1; C-terminal extension of three alanines from the NotI site; 256-469 (TSR4, TSR5, TSR6); The maleimide-biotin is surmised to sit on a free cysteine at the C-terminus of P^N1′ (Cys132/Cys133); source: HEK293-EBNA, co-expressed, purified …

[3] = molecular target: T2, C3b, biotinylated at the free cysteine of the hydrolysed thioester (human, UniProt P01024 23-667; P01024 749-1663, biotin (EZ-Link Maleimide-PEG2-Biotin) on the free cysteine that is generated after hydrolysis of the reactive thioester); assay: SPR; formation of C3bB and C3bBb on the chip: 100 nM FB^dgf‡ injected for 5 min over biotinylated C3b, then 100 nM FD for 5 min; buffer with 5 mM MgCl2; 25°C; conditions: both partners purified
T2 construct: complement C3 beta chain, human; C3b alpha' chain, human; Coupled to a streptavidin chip through the biotin; also called C3b coated chip; source: generated from C3 (purified from human plasma) with FB and FD, biotinylated, purified by SEC

[4] = molecular target: T3, C3 pro-convertase C3bB^dgf‡ generated on a C3b coated chip (human, UniProt P01024 23-667; P01024 749-1663; P00751 26-764, S699A | D279G | N285D, biotin (EZ-Link Maleimide-PEG2-Biotin) on the free cysteine that is generated after hydrolysis of the reactive thioester); assay: SPR; C3bB^dgf‡ or C3bBb^dgf‡ generated on a C3b coated chip before each injection; P^N12/456 injected (2.4 × 10^-4 to 2 μM on C3bB, 1.2 × 10^-4 to 1 μM on C3bBb); 20 mM HEPES pH 7.4, 0.005% Tween-20, 150 mM NaCl, 5 mM MgCl2; 25°C; equilibrium end-point fit; conditions: both partners purified
T3 construct: complement C3 beta chain, human; C3b alpha' chain, human; source: formed on the SPR chip: 100 nM FB^dgf‡ injected for 5 min over biotinylated C3b, 5 mM MgCl2; copies: + +

[5] = molecular target: T4, C3 convertase C3bBb^dgf‡ (human, UniProt P01024 23-667; P01024 749-1663; P00751 260-764, S699A | D279G | N285D, biotin (EZ-Link Maleimide-PEG2-Biotin) on the free cysteine that is generated after hydrolysis of the reactive thioester); assay: as above; conditions: both partners purified
T4 construct: complement C3 beta chain, human; C3b alpha' chain, human; In the convertase stability assay (functional rows) the same complex was formed in solution from C3b that was not biotinylated; source: formed on the SPR chip: FB^dgf‡ (100 nM, 5 min) then FD (100 nM, 5 min) over biotinylated C3b, 5 mM MgCl2; copies: + +

[6] = molecular target: T2, C3b, biotinylated at the free cysteine …; assay: SPR; biotinylated C3b on a SensEye P-Strep chip (IBIS-MX96); P^N12/456 injected 4.9 × 10^-3 to 40 μM in 14 2-fold steps; 20 mM HEPES pH 7.4, 0.005% Tween-20, 150 mM NaCl; 25°C; equilibrium end-point fit; conditions: both partners purified
[7] = molecular target: T2, C3b, biotinylated at the free cysteine …; assay: SPR; biotinylated C3b on a SensEye P-Strep chip; P^N12/456 injected 1.2 × 10^-3 to 10 μM; low ionic strength, 20 mM HEPES pH 7.4, 0.005% Tween-20, 50 mM NaCl; 25°C; equilibrium end-point fit; conditions: both partners purified

T2 sequence (P01024 23-667, one chain of several): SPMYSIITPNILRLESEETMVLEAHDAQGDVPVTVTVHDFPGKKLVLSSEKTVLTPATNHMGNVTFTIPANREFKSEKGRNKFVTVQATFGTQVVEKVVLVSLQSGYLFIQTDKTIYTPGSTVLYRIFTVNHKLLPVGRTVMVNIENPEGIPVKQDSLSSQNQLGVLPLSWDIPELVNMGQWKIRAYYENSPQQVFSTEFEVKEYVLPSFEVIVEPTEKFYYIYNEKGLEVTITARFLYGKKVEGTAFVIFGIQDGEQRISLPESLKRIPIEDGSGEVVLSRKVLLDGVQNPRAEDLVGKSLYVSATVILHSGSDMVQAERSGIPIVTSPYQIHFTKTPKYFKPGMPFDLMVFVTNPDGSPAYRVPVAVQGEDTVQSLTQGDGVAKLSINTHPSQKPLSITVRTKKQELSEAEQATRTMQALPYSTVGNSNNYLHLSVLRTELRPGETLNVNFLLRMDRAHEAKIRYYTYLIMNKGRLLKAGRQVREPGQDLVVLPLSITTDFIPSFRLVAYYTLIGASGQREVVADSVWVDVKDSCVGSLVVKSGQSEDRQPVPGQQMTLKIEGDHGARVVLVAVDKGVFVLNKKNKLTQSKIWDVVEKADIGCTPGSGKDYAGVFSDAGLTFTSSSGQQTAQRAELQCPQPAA
T4 sequence (P01024 23-667, stated change not applied, one chain of several): as the sequence (P01024 23-667, one chain of several) above
T3 sequence (P01024 23-667, stated change not applied, one chain of several): as the sequence (P01024 23-667, one chain of several) above
Chain of C3b (Homo sapiens) (P01024 23-667): as the sequence (P01024 23-667, one chain of several) above

Molecule: Properdin single vertices (from UniProt P27918)
- Kd [1]: 7.8 µM

- Kd [2]: 18.6 ± 1.6 µM
B1: C3/C3b-CTC domain (C-terminal C345c domain of C3/C3b) (domain or fragment, human)
chain: GSNCFIQKSDDKVTLEERLDKACEPGVDYVYKTRLVKVQLSNDFDEYIMAIEQTIKSGSDEVQVGQQRTFISPIKCREALKLEEKKHYLMWGLSSDFWGEKPNLSYIIGKDTWVEHWPEEDECQDEENQKQCQDLGAFTESMVVFGCPN
notes: N-terminal Gly-Ser cloning scar from the BamHI site; complement C3, human, CTC (C345c) domain, res; 1517-1663; stop codon before the NotI site, no alanine extension; also called C3b/C3 CTC domain

- binding result [3]: binds
B2: catalytically inactive (S699A) double-gain-of-function (D279G, N285D) factor B mutant (enzyme, human, UniProt P00751 26-764, looked up)
chain: TPWSLARPQGSCSLEGVEIKGGSFRLLQEGQALEYVCPSGFYPYPVQTRTCRSTGSWSTLKTQDQKTVRKAECRAIHCPRPHDFENGEYWPRSPYYNVSDEISFHCYDGYTLRGSANRTCQVNGRWSGQTAICDNGAGYCSNPGIPIGTRKVGSQYRLEDSVTYHCSRGLTLRGSQRRTCQEGGSWSGTEPSCQDSFMYDTPQEVAEAFLSSLTETIEGVDAEDGHGPGEQQKRKIVLDPSGSMNIYLVLDGSGSIGASDFTGAKKCLVNLIEKVASYGVKPRYGLVTYATYPKIWVKVSEADSSNADWVTKQLNEINYEDHKLKSGTNTKKALQAVYSMMSWPDDVPPEGWNRTRHVIILMTDGLHNMGGDPITVIDEIRDLLYIGKDRKNPREDYLDVYVFGVGPLVNQVNINALASKKDNEQHVFKVKDMENLEDVFYQMIDESQSLSLCGMVWEHRKGTDYHKQPWQAKISVIRPSKGHESCMGAVVSEYFVLTAAHCFTVDDKEHSIKVSVGGEKRDLEIEVVLFHPNYNINGKKEAGIPEFYDYDVALIKLKNKLKYGQTIRPICLPCTEGTTRALRLPPTTTCQQQKEELLPAQDIKALFVSEEEKKLTRKEVYIKNGDKKGSCERDAQYAPGYDKVKDISEVVTPRFLCTGGVSPYADPNTCRGDAGGPLIVHKRSRFIQVGVISWGVVDVCKNQKRQKQVPAHARDFHINLFQVLPWLKEKLQDEDLGFL
notes: complement factor B, human; also called FB^dgf‡

- Kd [4]: 0.098 ± 0.002 µM
- Kd [5]: 0.034 ± 0.001 µM
- Kd [6]: 6.8 ± 0.2 µM
- Kd [7]: 0.69 ± 0.04 µM
B3: P^N12/456, monomerized properdin (non-covalent complex of P^N12 with P^456) (complex, human)
chain 1: GSDPVLCFTQYEESSGKCKGLLGGGVSVEDCCLNTAFAYQKRSGGLCQPCRSPRWSLWSTWAPCSVTCSEGSQLRYRRCVGWNGQCSGKVAPGTLEWQLQACEDQQCCPEMGGWSGWGPWEPCSVTCSKGTRTRRRACNHPAPKCGGHCPGQAQESEACDTQQVCP
chain 2: GSVAGGWGPWGPVSPCPVTCGLGQTMEQRTCNHPVPQHGGPFCAGDATRTHICNTAVPCPVDGEWDSWGEWSPCIRRNMKSISCQEIPGQQSRGRTCRGRKFDGHRCAGQQQDIRHCYSIQHCPLKGSWSEWSTWGLCMPPCGPNPTRARQRLCTPLLPKYPPTVSMVEGQGEKNVTFWGRPLPRCEELQGQKLVVEEKRPCLHVPACKDPEEEELAAA
modifications: C-mannosylated Trp-ladder tryptophans; O-fucosylation of Thr92 and Thr151 (observed in the structure) | C-mannosylated Trp-ladder tryptophans; O-fucosylation of Thr272; N-glycosylation of Asn428
notes: N-terminal Gly-Ser cloning scar from the BamHI site; properdin, human, P^N12, res; 28-191 (N-terminal STB domain, TSR1, TSR2); stop codon before the NotI site, no alanine extension; 256-469 (TSR4, TSR5, TSR6); C-terminal extension of three alanines from the NotI site; TSR3 (res. 192-255) is absent; source: HEK293-EBNA, co-expressed (1:1 DNA ratio), purified from supernatant (Ni-Sepharose Excel, …)
